Data: patent US20190040102A1 (CDRD VENTURES, published 2019)
Starred links: 1 amine or outer side, 2 acyl side, 3 side chain; linkers in the order of their positions; H or OH if unused. Positions of bridges follow the written chain, without caps; N, C: chain ends. Non-standard residues stand in square brackets, D forms with d. *: point of attachment. dPhe(4-phenylureido) = D-4-(phenylureido)Phe, O=C(Nc1ccccc1)Nc1ccc(C[C@@H](N[*:1])C(=O)[*:2])cc1; Tyr(Me) = 4-OMe-Phe, COc1ccc(C[C@H](N[*:1])C(=O)[*:2])cc1; dPhe(4-CONH2) = NC(=O)c1ccc(C[C@@H](N)C(=O)O)cc1; NMePhe(4-Cl) = CN[C@@H](Cc1ccc(Cl)cc1)C(=O)O; Phe(4-Cl) = N[C@@H](Cc1ccc(Cl)cc1)C(=O)O; NMeY = CN[C@@H](Cc1ccc(O)cc1)C(=O)O; dNMeY = CN[C@H](Cc1ccc(O)cc1)C(=O)O; NMeT = CN[C@H](C(=O)O)[C@@H](C)O; dCit = NC(=O)NCCC[C@@H](N)C(=O)O; Tle = CC(C)(C)[C@H](N)C(=O)O; Nicotinoyl = O=C(c1cccnc1)*; dNMeC = CN[C@H](CS)C(=O)O

B1: Compound 77: H-(N-Me)Cpa-cyclo[D-Cys-Tyr-D-Phe(4-carbamoyl)-Lys-Thr-Cys]-D-Tyr-NH2 (peptide)
peptide: XXYXKTCX
HELM: PEPTIDE1{[CN[C@@H](Cc1ccc(Cl)cc1)C(=O)[*:2]].[dC].Y.[NC(=O)c1ccc(C[C@@H](N[*:1])C(=O)[*:2])cc1].K.T.C.[dY].[am]}$PEPTIDE1,PEPTIDE1,2:R3-7:R3$$$V2.0
SMILES: CN[C@@H](Cc1ccc(Cl)cc1)C(=O)N[C@@H]1CSSC[C@@H](C(=O)N[C@H](Cc2ccc(O)cc2)C(N)=O)NC(=O)[C@H]([C@@H](C)O)NC(=O)[C@H](CCCCN)NC(=O)[C@@H](Cc2ccc(C(N)=O)cc2)NC(=O)[C@H](Cc2ccc(O)cc2)NC1=O
B2: Compound 78: H-Cpa-[NMeDCys-Tyr-DPhe(4-carbamoyl)-Lys-Thr-Cys]-DTyr-NH2 (peptide)
peptide: H-[Phe(4-Cl)][dNMeC]Y[dPhe(4-CONH2)]KTC[dY]-NH2
modifications: disulfide 2-7
SMILES: C[C@@H](O)[C@@H]1NC(=O)[C@H](CCCCN)NC(=O)[C@@H](Cc2ccc(C(N)=O)cc2)NC(=O)[C@H](Cc2ccc(O)cc2)NC(=O)[C@H](N(C)C(=O)[C@@H](N)Cc2ccc(Cl)cc2)CSSC[C@@H](C(=O)N[C@H](Cc2ccc(O)cc2)C(N)=O)NC1=O
B3: Compound 79: H-Cpa-[DCys-Tyr-DPhe(4-carbamoyl)-Lys-Thr-Cys]-NMeDTyr-NH2 (peptide)
peptide: H-[Phe(4-Cl)][dC]Y[dPhe(4-CONH2)]KTC[dNMeY]-NH2
modifications: disulfide 2-7
SMILES: C[C@@H](O)[C@@H]1NC(=O)[C@H](CCCCN)NC(=O)[C@@H](Cc2ccc(C(N)=O)cc2)NC(=O)[C@H](Cc2ccc(O)cc2)NC(=O)[C@H](NC(=O)[C@@H](N)Cc2ccc(Cl)cc2)CSSC[C@@H](C(=O)N(C)[C@H](Cc2ccc(O)cc2)C(N)=O)NC1=O
B4: Compound 80: H-NMeCpa-[DCys-NMeTyr-DPhe(4-carbamoyl)-Lys-NMeThr-Cys]-NMeDTyr-NH2 (peptide)
peptide: H-[NMePhe(4-Cl)][dC][NMeY][dPhe(4-CONH2)]K[NMeT]C[dNMeY]-NH2
modifications: disulfide 2-7
SMILES: CN[C@@H](Cc1ccc(Cl)cc1)C(=O)N[C@@H]1CSSC[C@@H](C(=O)N(C)[C@H](Cc2ccc(O)cc2)C(N)=O)NC(=O)[C@H]([C@@H](C)O)N(C)C(=O)[C@H](CCCCN)NC(=O)[C@@H](Cc2ccc(C(N)=O)cc2)NC(=O)[C@H](Cc2ccc(O)cc2)N(C)C1=O
B5: Compound 25: H-Cpa-cyclo[D-Cys-Tyr-D-Phe(4-phenylureido)-Lys(Nε-Me)-Thr-Cys]-D-Tyr-NH2 (peptide)
peptide: H-[Phe(4-Cl)][dC]Y[dPhe(4-phenylureido)]K(Me)TC[dY]-NH2
modifications: disulfide 2-7
SMILES: CNCCCC[C@@H]1NC(=O)[C@@H](Cc2ccc(NC(=O)Nc3ccccc3)cc2)NC(=O)[C@H](Cc2ccc(O)cc2)NC(=O)[C@H](NC(=O)[C@@H](N)Cc2ccc(Cl)cc2)CSSC[C@@H](C(=O)N[C@H](Cc2ccc(O)cc2)C(N)=O)NC(=O)[C@H]([C@@H](C)O)NC1=O
B6: Compound 26: H-Cpa-cyclo[DCys-Tyr-D-(4-carbamoyl)Phe-(N-Acetyl)Lys-Thr-Cys]-DTyr-NH2 (peptide)
peptide: XXYXXTCX
HELM: PEPTIDE1{[N[C@@H](Cc1ccc(Cl)cc1)C(=O)[*:2]].[dC].Y.[NC(=O)c1ccc(C[C@@H](N[*:1])C(=O)[*:2])cc1].K.T.C.[dY].[am]}|PEPTIDE2{[ac]}$PEPTIDE1,PEPTIDE2,5:R3-1:R2|PEPTIDE1,PEPTIDE1,2:R3-7:R3$$$V2.0
SMILES: CC(=O)NCCCC[C@@H]1NC(=O)[C@@H](Cc2ccc(C(N)=O)cc2)NC(=O)[C@H](Cc2ccc(O)cc2)NC(=O)[C@H](NC(=O)[C@@H](N)Cc2ccc(Cl)cc2)CSSC[C@@H](C(=O)N[C@H](Cc2ccc(O)cc2)C(N)=O)NC(=O)[C@H]([C@@H](C)O)NC1=O
B7: Compound 28: H-Cpa-cyclo[DCys-Tyr-D-(4-(4-methoxyphenyl)ureido)Phe-Lys-Thr-Cys]-DTyr-NH2 (peptide)
peptide: XXYXKTCX
HELM: PEPTIDE1{[N[C@@H](Cc1ccc(Cl)cc1)C(=O)[*:2]].[dC].Y.[COc1ccc(NC(=O)Nc2ccc(C[C@@H](N[*:1])C(=O)[*:2])cc2)cc1].K.T.C.[dY].[am]}$PEPTIDE1,PEPTIDE1,2:R3-7:R3$$$V2.0
SMILES: COc1ccc(NC(=O)Nc2ccc(C[C@H]3NC(=O)[C@H](Cc4ccc(O)cc4)NC(=O)[C@H](NC(=O)[C@@H](N)Cc4ccc(Cl)cc4)CSSC[C@@H](C(=O)N[C@H](Cc4ccc(O)cc4)C(N)=O)NC(=O)[C@H]([C@@H](C)O)NC(=O)[C@H](CCCCN)NC3=O)cc2)cc1
B8: Compound 29: H-Cpa-cyclo[DCys-Tyr-D-(4-carbamoyl)Phe-Arg-Thr-Cys]-DTyr-NH2 (peptide)
peptide: XXYXRTCX
HELM: PEPTIDE1{[N[C@@H](Cc1ccc(Cl)cc1)C(=O)[*:2]].[dC].Y.[NC(=O)c1ccc(C[C@@H](N[*:1])C(=O)[*:2])cc1].R.T.C.[dY].[am]}$PEPTIDE1,PEPTIDE1,2:R3-7:R3$$$V2.0
SMILES: C[C@@H](O)[C@@H]1NC(=O)[C@H](CCCNC(=N)N)NC(=O)[C@@H](Cc2ccc(C(N)=O)cc2)NC(=O)[C@H](Cc2ccc(O)cc2)NC(=O)[C@H](NC(=O)[C@@H](N)Cc2ccc(Cl)cc2)CSSC[C@@H](C(=O)N[C@H](Cc2ccc(O)cc2)C(N)=O)NC1=O
B9: Compound 30: H-Cpa-cyclo[D-Cys-Tyr-D-Lys(Nε-nicotinoyl)-Lys(Nε-Me)-Thr-Cys]-D-Tyr-NH2 (peptide)
peptide: H-[Phe(4-Cl)][dC]Y[dK](Nicotinoyl)K(Me)TC[dY]-NH2
modifications: disulfide 2-7
SMILES: CNCCCC[C@@H]1NC(=O)[C@@H](CCCCNC(=O)c2cccnc2)NC(=O)[C@H](Cc2ccc(O)cc2)NC(=O)[C@H](NC(=O)[C@@H](N)Cc2ccc(Cl)cc2)CSSC[C@@H](C(=O)N[C@H](Cc2ccc(O)cc2)C(N)=O)NC(=O)[C@H]([C@@H](C)O)NC1=O
B10: Compound 31: H-Cpa-cyclo[DCys-Tyr-D-Cit-(N-Me)Lys-Thr-Cys]-DTyr-NH2 (peptide)
peptide: H-[Phe(4-Cl)][dC]Y[dCit]K(Me)TC[dY]-NH2
modifications: disulfide 2-7
SMILES: CNCCCC[C@@H]1NC(=O)[C@@H](CCCNC(N)=O)NC(=O)[C@H](Cc2ccc(O)cc2)NC(=O)[C@H](NC(=O)[C@@H](N)Cc2ccc(Cl)cc2)CSSC[C@@H](C(=O)N[C@H](Cc2ccc(O)cc2)C(N)=O)NC(=O)[C@H]([C@@H](C)O)NC1=O
B11: Compound 33: H-Cpa-cyclo[DCys-Tyr-D-4-(carbamoyl)Phe-Lys-Val-Cys]-DTyr-NH2 (peptide)
peptide: XXYXKVCX
HELM: PEPTIDE1{[N[C@@H](Cc1ccc(Cl)cc1)C(=O)[*:2]].[dC].Y.[NC(=O)c1ccc(C[C@@H](N[*:1])C(=O)[*:2])cc1].K.V.C.[dY].[am]}$PEPTIDE1,PEPTIDE1,2:R3-7:R3$$$V2.0
SMILES: CC(C)[C@@H]1NC(=O)[C@H](CCCCN)NC(=O)[C@@H](Cc2ccc(C(N)=O)cc2)NC(=O)[C@H](Cc2ccc(O)cc2)NC(=O)[C@H](NC(=O)[C@@H](N)Cc2ccc(Cl)cc2)CSSC[C@@H](C(=O)N[C@H](Cc2ccc(O)cc2)C(N)=O)NC1=O
B12: Compound 34: H-Cpa-cyclo[DCys-Tyr-D-4-(carbamoyl)Phe-Lys-tBu-Gly-Cys]-DTyr-NH2 (peptide)
peptide: H-[Phe(4-Cl)][dC]Y[dPhe(4-CONH2)]K[Tle]C[dY]-NH2
modifications: disulfide 2-7
SMILES: CC(C)(C)[C@@H]1NC(=O)[C@H](CCCCN)NC(=O)[C@@H](Cc2ccc(C(N)=O)cc2)NC(=O)[C@H](Cc2ccc(O)cc2)NC(=O)[C@H](NC(=O)[C@@H](N)Cc2ccc(Cl)cc2)CSSC[C@@H](C(=O)N[C@H](Cc2ccc(O)cc2)C(N)=O)NC1=O
B13: Compound 35: H-Cpa-cyclo[DCys-Phe-D-(4-carbamoyl)Phe-Lys-Thr-Cys]-DTyr-NH2 (peptide)
peptide: XXFXKTCX
HELM: PEPTIDE1{[N[C@@H](Cc1ccc(Cl)cc1)C(=O)[*:2]].[dC].F.[NC(=O)c1ccc(C[C@@H](N[*:1])C(=O)[*:2])cc1].K.T.C.[dY].[am]}$PEPTIDE1,PEPTIDE1,2:R3-7:R3$$$V2.0
SMILES: C[C@@H](O)[C@@H]1NC(=O)[C@H](CCCCN)NC(=O)[C@@H](Cc2ccc(C(N)=O)cc2)NC(=O)[C@H](Cc2ccccc2)NC(=O)[C@H](NC(=O)[C@@H](N)Cc2ccc(Cl)cc2)CSSC[C@@H](C(=O)N[C@H](Cc2ccc(O)cc2)C(N)=O)NC1=O
B14: Compound 36: H-Cpa-cyclo[DCys-Cpa-D-(4-carbamoyl)Phe-Lys-Thr-Cys]-DTyr-NH2 (peptide)
peptide: H-[Phe(4-Cl)][dC][Phe(4-Cl)][dPhe(4-CONH2)]KTC[dY]-NH2
modifications: disulfide 2-7
SMILES: C[C@@H](O)[C@@H]1NC(=O)[C@H](CCCCN)NC(=O)[C@@H](Cc2ccc(C(N)=O)cc2)NC(=O)[C@H](Cc2ccc(Cl)cc2)NC(=O)[C@H](NC(=O)[C@@H](N)Cc2ccc(Cl)cc2)CSSC[C@@H](C(=O)N[C@H](Cc2ccc(O)cc2)C(N)=O)NC1=O
B15: Compound 37: H-Cpa-cyclo[DCys-Tyr-D-(4-carbamoyl)Phe-Lys-Ser-Cys]-DTyr-NH2 (peptide)
peptide: XXYXKSCX
HELM: PEPTIDE1{[N[C@@H](Cc1ccc(Cl)cc1)C(=O)[*:2]].[dC].Y.[NC(=O)c1ccc(C[C@@H](N[*:1])C(=O)[*:2])cc1].K.S.C.[dY].[am]}$PEPTIDE1,PEPTIDE1,2:R3-7:R3$$$V2.0
SMILES: NCCCC[C@@H]1NC(=O)[C@@H](Cc2ccc(C(N)=O)cc2)NC(=O)[C@H](Cc2ccc(O)cc2)NC(=O)[C@H](NC(=O)[C@@H](N)Cc2ccc(Cl)cc2)CSSC[C@@H](C(=O)N[C@H](Cc2ccc(O)cc2)C(N)=O)NC(=O)[C@H](CO)NC1=O
B16: Compound 38: H-Cpa-cyclo[DCys-4-OMe-Phe-D-(4-carbamoyl)Phe-Lys-Thr-Cys]-DTyr-NH2 (peptide)
peptide: H-[Phe(4-Cl)][dC][Tyr(Me)][dPhe(4-CONH2)]KTC[dY]-NH2
modifications: disulfide 2-7
SMILES: COc1ccc(C[C@@H]2NC(=O)[C@H](NC(=O)[C@@H](N)Cc3ccc(Cl)cc3)CSSC[C@@H](C(=O)N[C@H](Cc3ccc(O)cc3)C(N)=O)NC(=O)[C@H]([C@@H](C)O)NC(=O)[C@H](CCCCN)NC(=O)[C@@H](Cc3ccc(C(N)=O)cc3)NC2=O)cc1

Biological target: somatostatin receptor type 2 (SSTR2) (UniProt P30874 1-369)
Assay: cell-based or functional assay

Sequence of somatostatin receptor type 2 (SSTR2) (P30874 whole entry): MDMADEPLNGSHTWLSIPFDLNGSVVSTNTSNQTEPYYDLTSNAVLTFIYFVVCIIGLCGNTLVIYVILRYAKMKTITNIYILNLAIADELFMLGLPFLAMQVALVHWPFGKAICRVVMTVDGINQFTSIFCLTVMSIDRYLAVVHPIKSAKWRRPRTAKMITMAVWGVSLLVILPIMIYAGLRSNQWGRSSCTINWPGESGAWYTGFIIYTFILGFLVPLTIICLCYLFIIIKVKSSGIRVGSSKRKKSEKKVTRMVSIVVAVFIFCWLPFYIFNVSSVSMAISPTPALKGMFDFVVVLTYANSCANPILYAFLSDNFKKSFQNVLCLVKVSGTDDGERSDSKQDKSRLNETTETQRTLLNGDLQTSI

Row | Binder | IC50 (PathHunter β-Arrestin, antagonist mode) [µM]
1 | B1 | 0.00225
2 | B2 | 0.00679
3 | B3 | 0.0287
4 | B4 | > 1
5 | B5 | 0.00232
6 | B6 | > 1
7 | H-[Phe(4-Cl)][dC]Y[dPhe(4-benzamidophenyl)]KTC[dY]-NH2 (disulfide 2-7) [Compound 27: H-Cpa-cyclo[DCys-Tyr-D-(4-Benzamidophenyl)Phe-Lys-Thr-Cys]-DTyr-NH2] | 0.0347
8 | B7 | 0.104
9 | B8 | 0.398
10 | B9 | 0.177
11 | B10 | 0.0704
12 | H-[Phe(4-Cl)][dC]Y[dPhe(4-CONH2)]K(diMe)TC[dY]-NH2 (disulfide 2-7) [Compound 32: H-Cpa-cyclo[D-Cys-Tyr-D-Phe(4-carbamoyl)-Lys(N-diMe)-Thr-Cys]-D-Tyr-NH2] | 0.00246
13 | B11 | 0.056
14 | B12 | 0.0434
15 | B13 | 0.0359
16 | B14 | 0.0287
17 | B15 | 0.0106
18 | B16 | 0.0244
